Data published in paper PMC10081965 (Structure (London, England : 1993), 2023).
Blank lines part the entries; values can stand above or below the binder they belong to.

Key:
UBQLN2 UBL (26–103) = UBQLN2 UBL (26–103) (UniProt Q9UHD9 26-103); assay: NMR titration
UBQLN2 = UBQLN2 (UniProt Q9UHD9 1-624); assay: recruitment to biomolecular condensates in vitro

Chain of UBQLN2 UBL (26–103) (Q9UHD9 26-103): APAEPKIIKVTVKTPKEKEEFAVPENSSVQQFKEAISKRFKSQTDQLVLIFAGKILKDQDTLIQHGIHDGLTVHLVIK

- binding result (UBQLN2 UBL (26–103)): binds
B1: UBQLN1 (514–589, F547Y) (domain or fragment, UniProt Q9UMX0 514-589, looked up)
chain: TAGTTEPGHQQFIQQMLQALAGVNPQLQNPEVRYQQQLEQLSAMGFLNREANLQALIATGGDINAAIERLLGSQPS

- binding result (UBQLN2): binds
B2: AZUL-mEGFP (E6AP isoform II 24–87 with a C-terminal mEGFP) (domain or fragment, UniProt Q05086 24-87, looked up)
chain: MKRAAAKHLIERYYHQLTEGCGNEACTNEFCASCPTFLRMDNNAAAIKALELYKINAKLCDPHP
